Target: SP1 (rhSP1) (Homo sapiens, UniProt P08047 1-785)
Assay: EMSA

Chain of SP1 (rhSP1) (P08047 whole entry): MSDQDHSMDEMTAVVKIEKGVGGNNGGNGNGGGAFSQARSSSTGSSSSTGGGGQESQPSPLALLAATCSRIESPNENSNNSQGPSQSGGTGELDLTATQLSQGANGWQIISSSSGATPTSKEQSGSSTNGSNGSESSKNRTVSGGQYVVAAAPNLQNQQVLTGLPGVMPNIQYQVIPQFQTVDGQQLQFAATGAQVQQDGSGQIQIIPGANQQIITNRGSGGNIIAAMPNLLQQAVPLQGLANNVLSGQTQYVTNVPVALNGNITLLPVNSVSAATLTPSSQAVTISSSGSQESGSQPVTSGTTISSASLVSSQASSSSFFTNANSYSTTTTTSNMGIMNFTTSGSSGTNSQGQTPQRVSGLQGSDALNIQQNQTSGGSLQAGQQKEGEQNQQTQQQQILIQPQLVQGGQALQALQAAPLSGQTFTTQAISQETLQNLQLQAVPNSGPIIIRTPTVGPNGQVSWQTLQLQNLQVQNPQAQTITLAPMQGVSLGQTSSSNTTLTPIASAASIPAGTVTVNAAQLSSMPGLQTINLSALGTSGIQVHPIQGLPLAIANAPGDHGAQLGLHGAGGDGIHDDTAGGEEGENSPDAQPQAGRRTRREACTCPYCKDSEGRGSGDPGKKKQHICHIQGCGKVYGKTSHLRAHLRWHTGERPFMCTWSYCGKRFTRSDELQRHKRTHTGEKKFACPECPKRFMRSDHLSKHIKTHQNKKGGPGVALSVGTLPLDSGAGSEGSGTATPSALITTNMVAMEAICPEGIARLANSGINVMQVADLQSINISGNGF

B1: MRE1.3a (25 bp) (dsDNA)
DNA 1: GCAGCAGCCTCCTCCCCCCGCACGG
DNA 2: CCGTGCGGGGGGAGGAGGCTGCTGC
binding result: binds

B2: MRE1.3 (dsDNA)
DNA 1: GCAGCAGCCTCCTCCCCCCGCACGGTGTGAGCGCCCGACGCGGCCGAGGCGGCCGGAGTCCCGAG
DNA 2: CTCGGGACTCCGGCCGCCTCGGCCGCGTCGGGCGCTCACACCGTGCGGGGGGAGGAGGCTGCTGC
binding result: binds
